The text below walks through data of patent publication US6949506B2, “Relaxin-like factor and methods and uses thereof” (BAS Medical, Inc., priority 1995, dated 2005).

The test system of test [1] is collagen expression, rheumatoid synovial fibroblasts (Strain No. RSF64). The test can be described thus: Inhibition of collagen expression by synovial fibroblasts. The test is classed as cell-based, human. As for the experimental part: The method for detecting and measuring collagen formation in the presence of relaxin described in Unemori and Amento, 1990, J. Biol. Chem. 265:10681-685 has been modified as follows to determine the ability of RLF, in vitro, to modulate the expression of collagen. Materials and Methods. Rheumatoid synovial fibroblasts (Strain No. […] The cells were simultaneously biosynthetically labelled with ^3H=[…] μCi/ml) in the presence of ascorbate and BAPN. After 24 hours, the conditioned media were collected and electrophoresed on 4-12% polyacrylamide gels (NOVEX) under reducing conditions. Gels were enhanced, dried, and exposed to X-ray films for 1-2 weeks. Collagen bands were identified on the X-ray films as bacterial collagenase-sensitive, proline-incorporating bands between 95-200 kDa. Band density was quantified by scanning densitometry and used as estimates of collagen expression.

In test [2] the test system is crude membrane preparations of leg muscles, kidneys, liver, brain, and uterus. Put plainly: Tissue specificity of 125I-RLF binding. The conditions noted are these: skeletal muscle, kidney and liver tested, female estrogen primed mice. More on the design: species or system mouse. As for the experimental part:
FIG. 6. FIG. 6 depicts the tissue distribution of RLF receptors in female estrogen primed mice as measured in vitro in a receptor-binding assay.
Tissue specificity was determined using crude membrane preparations of leg muscles, kidneys, liver. brain, and uterus (of estrogen primed mice). The crude membranes were prepared as described for relaxin. Binding was based on protein concentration determined by Lowry.

The target of test [3] is RLF receptor of mouse brain (mouse). Put plainly: displacement of 125I-RLF tracer, mouse brain crude membranes; amount of competitor at 50% binding.
In test [4] the target is mouse brain relaxin receptor (mouse). The test can be described thus: displacement of porcine relaxin tracer, mouse brain crude membranes.
The target is the same in test [5]. Put plainly: displacement of porcine relaxin tracer, mouse brain crude membranes; amount of competitor at 50% binding.
Test [6] concerns the target RLF receptor of mouse uterus (mouse). Put plainly: displacement of 125I-RLF tracer, mouse uterus crude membranes; amount of competitor at 50% binding. (In a radioligand displacement assay an active substance lowers the binding of a labelled ligand.)
The target of test [7] is mouse uterine relaxin receptor (mouse). The test can be described thus: displacement of porcine relaxin tracer, mouse uterus crude membranes; amount of competitor at 50% binding.
Sequence of mouse uterine relaxin receptor (mouse) (Q6R6I7 whole entry): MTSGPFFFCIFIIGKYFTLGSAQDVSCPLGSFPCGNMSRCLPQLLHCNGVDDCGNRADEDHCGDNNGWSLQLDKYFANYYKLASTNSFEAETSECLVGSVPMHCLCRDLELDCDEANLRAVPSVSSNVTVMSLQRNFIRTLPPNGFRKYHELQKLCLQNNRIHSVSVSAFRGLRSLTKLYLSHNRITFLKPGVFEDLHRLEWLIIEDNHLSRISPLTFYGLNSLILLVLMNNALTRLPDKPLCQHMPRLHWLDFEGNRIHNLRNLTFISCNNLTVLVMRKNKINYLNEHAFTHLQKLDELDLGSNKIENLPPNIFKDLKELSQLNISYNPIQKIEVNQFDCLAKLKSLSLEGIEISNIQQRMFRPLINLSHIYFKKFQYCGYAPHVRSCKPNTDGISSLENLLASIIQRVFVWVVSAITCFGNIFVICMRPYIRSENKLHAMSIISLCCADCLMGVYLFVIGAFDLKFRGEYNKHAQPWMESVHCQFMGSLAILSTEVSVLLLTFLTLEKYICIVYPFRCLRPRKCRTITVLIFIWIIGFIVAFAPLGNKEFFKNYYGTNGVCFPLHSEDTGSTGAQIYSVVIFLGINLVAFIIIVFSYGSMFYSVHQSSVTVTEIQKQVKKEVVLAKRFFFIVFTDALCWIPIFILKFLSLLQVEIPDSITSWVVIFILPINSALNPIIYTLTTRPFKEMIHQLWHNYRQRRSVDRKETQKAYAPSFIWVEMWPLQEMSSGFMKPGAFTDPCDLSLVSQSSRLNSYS

Positions of bridges follow the written chain, without caps; N, C: chain ends. Chains are numbered I, II in the order given. No end group written: not given here.

Sequence of RLF receptor of mouse uterus (mouse) (Q91ZZ5 whole entry): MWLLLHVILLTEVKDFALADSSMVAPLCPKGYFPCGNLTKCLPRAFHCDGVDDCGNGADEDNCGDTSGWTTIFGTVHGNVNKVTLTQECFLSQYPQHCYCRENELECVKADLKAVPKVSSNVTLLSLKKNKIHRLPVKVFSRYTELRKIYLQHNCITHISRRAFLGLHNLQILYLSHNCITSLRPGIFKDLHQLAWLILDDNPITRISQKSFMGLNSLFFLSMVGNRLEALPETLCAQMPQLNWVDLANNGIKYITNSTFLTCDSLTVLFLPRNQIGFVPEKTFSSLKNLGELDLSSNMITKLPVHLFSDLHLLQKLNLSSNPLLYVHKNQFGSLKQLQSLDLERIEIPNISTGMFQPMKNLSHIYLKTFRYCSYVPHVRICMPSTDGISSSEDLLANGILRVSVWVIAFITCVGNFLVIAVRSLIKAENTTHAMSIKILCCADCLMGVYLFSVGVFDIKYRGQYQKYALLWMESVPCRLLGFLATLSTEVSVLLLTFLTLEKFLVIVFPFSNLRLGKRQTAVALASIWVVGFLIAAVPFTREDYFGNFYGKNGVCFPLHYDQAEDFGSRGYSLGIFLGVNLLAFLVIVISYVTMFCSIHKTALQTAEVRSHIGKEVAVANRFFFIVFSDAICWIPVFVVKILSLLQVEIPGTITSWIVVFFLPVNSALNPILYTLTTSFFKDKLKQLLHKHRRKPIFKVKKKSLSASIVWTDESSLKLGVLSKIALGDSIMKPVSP

Consider TGF-β [reference compound], for which the “increase of collagen expression over untreated fibroblasts” value in test [1] came to 3.75 fold.

Regarding “^125I-RLF: 125I-labeled RLF used as tracer (chain 1 AAATNPARYCCLSGCTQQDLLTLCPY; chain 2 PTPEMREKLCGHHFVRALVRVCGGPRWSTEA; disulfide I:11-II:10; cysteine pairing not given here; also: 125I-labeled (site not given here))”, the “tissues showing specific binding” value in test [2] was “only the brain- and the uterus membrane preparation showed specific binding”.

B1: human relaxin-like factor (RLF), synthetic (ligand)
chain 1: AAATNPARYCCLSGCTQQDLLTLCPY
chain 2: PTPEMREKLCGHHFVRALVRVCGGPRWSTEA
Regarding B1, the 50% Binding in test [3] was 0.3 ng; in test [5], 200 ng; in test [6], 0.3 ng; in test [7] it was 10000 ng. Moreover, the excess that displaces 50% of the relaxin tracer in test [4] is 100 fold excess.

B2: human relaxin (ligand)
chain 1: QLYSALANKCCHVGCTKRSLARFC
chain 2: DSWMEEVIKLCGRELVRAQIAICGMSTWS
In the case of B2, the 50% Binding in test [3] was 1000 ng; in test [5], 1 ng; in test [6], 800 ng; in test [7], 1 ng.
